From the supplement of paper PMC12042874
± gives the uncertainty stated by the source.

Test: amyloid nucleation score (Sup35N fusion, yeast selection) (log enrichment); library NNK3; higher = more nucleation; inactive = no reads after selection
Method in brief: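 Nucleation score is defined as the DiMSum log enrichment of output over input reads, with centring on the mode score of non-aggregating sequences. A minimum of 100 input reads was required for each sequence. Reads came from Illumina sequencing of plasmid inserts from psi-negative yeast expressing Sup35N fused to peptides of 20 random codons, induced with 100 μM copper sulfate for 24 hours and grown 7 days at 30°C on medium lacking adenine and uracil.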

Row | Substance | amyloid nucleation score
1 | IISCYTNKMIVVTWCYPLRR | 0.116 ± 0.19
2 | IIYMMLYVKEGMSWTSLPDQ | inactive
3 | IIYPLMKAWISDMLMVISIS | inactive
4 | IKAGTEVVFRTSDLFMTMLQ | inactive
5 | IKFHW | inactive
6 | IKIMFLTAVYVMVGLQIIAT | inactive
7 | IKLVDLPCSLVNTGSTVNRE | inactive
8 | IKSGFW | inactive
9 | IKTGYSTHDPNHVDNTIRSR | inactive
10 | ILARYLDIYMSSVPVEWVTK | inactive
11 | ILCFGLLN | inactive
12 | ILFTYCSYINREVLRWMQDS | inactive
13 | ILGRSSISFDLM | inactive
14 | ILIWRSGCYWTSPTEGVFRF | 0.572 ± 0.2
15 | ILNMAVGALWGLMIWSVMLF | inactive
16 | ILNTVIGSQLDELPVAAFSS | inactive
17 | ILQKQVTTRLSINSENLHL | 0.256 ± 0.21
18 | ILRHKCDEQPVRVSGHCFA | inactive
19 | ILRNRNDIQNAYCRNKY | inactive
20 | ILRYLSIVPRNFYRCYGHFG | inactive
21 | ILSKVNSKSDKRSF | inactive
22 | ILSLSQMNT | inactive
23 | ILSRRLRLQLLFDFYNCLCG | inactive

Row | Substance | amyloid nucleation score
24 | ILSSKSTNENVSYFLLKM | 0.794 ± 0.099
25 | ILVCESV | inactive
26 | ILVKIVSWVHLKRTVGTDQD | inactive
27 | ILVSFVVGTNLLWGDASVRW | 0.236 ± 0.48
28 | ILWFMDGMIRSRGVPLGDGC | inactive
29 | ILYICHINKGVGGQIGVMAV | inactive
30 | ILYSGVIILYSFYIRRPMVL | inactive
31 | IMCYLSITRWKDM | inactive
32 | IMELLQV | inactive
33 | IMIYSQPKGEASCFGCFRLG | 0.702 ± 0.17
34 | IMKCICVYVFINCHKWDVHA | inactive
35 | IMKFDSRAYNGYMQMIRPGV | inactive
36 | IMNCVLMKDIWYSVFNHR | 2.44 ± 0.067
37 | IMNSPKGYTILWRGSLRGIQ | inactive
38 | IMPRPIKSRLNKNFLWAVVC | inactive
39 | IMRGITEGWEPLVVES | inactive
40 | IMRLHC | inactive
41 | IMVCKWTSPTSTMPHDDLGC | inactive
42 | IMVKLSIIIVYC | 1.76 ± 0.083
43 | IMVRGVRDS | inactive
44 | IMVVQYTWDWPGCCWIRWYL | inactive
45 | IMVWLRARSITYNQVDDRGS | inactive
46 | IMYLRETGTK | inactive

Row | Substance | amyloid nucleation score
47 | INCSLENLINKDLWVSSQVC | inactive
48 | INDLQTSPR | inactive
49 | INLTYRVTVRVQISAPGMCA | -0.206 ± 0.65
50 | INNLFTRVSSIRFCVRS | inactive
51 | INTNAYSGLEIYRYSTIAKG | inactive
52 | INVDGKNNPSRREKTISMGG | inactive
53 | INWYIHFRPLWQGFR | inactive
54 | IPALIVISQYRGANRFDCAF | inactive
55 | IPFGFSI | inactive
56 | IPFLDKGYGR | inactive
57 | IPFNPALLVPRGFGSFIIPA | inactive
58 | IPYDSSLLNSSNVCYLI | inactive
59 | IQANSLLSRLLRLSGNCCWM | 0.127 ± 0.8
60 | IQFLTNKQALLEKFPGKSPW | inactive
61 | IQLCTKIYSITKV | inactive
62 | IRDLSLNQSGYFTFVTCWRC | 2.73 ± 0.067
63 | IRDVG | -0.573 ± 1
64 | IRLFHEAIKGDLC | inactive
65 | IRMIDWILLDAVT | inactive
66 | IRNGYSRICRIQRLGSMGM | inactive
67 | IRTSGSMYIISIWRWVGRTL | inactive
68 | ISALKQSS | inactive
69 | ISCIGPFCSTIPLIKLNLIE | 1.3 ± 0.1

Row | Substance | amyloid nucleation score
70 | ISDTSCHIDTLRFLGRVRFL | inactive
71 | ISLVAAKLRTCF | inactive
72 | ISSAYCGHIGLAAINRLILT | inactive
73 | ISSFGARNTPWRTLSPAPEG | 0.184 ± 0.32
74 | ISSPNEVWSVIVEWPRIYC | inactive
75 | ISTRPSM | inactive
76 | ISTVNNIRIRFASKLGFFE | 1.25 ± 0.071
77 | ISVVMDNSACG | inactive
78 | ISYNTVRYRYGFVYNRLLPW | inactive
79 | ITDLYF | inactive
80 | ITGVFCTSHVRFNINFKLWE | 1.97 ± 0.063
81 | ITPWCFLVSCIRVSYAIVPT | inactive
82 | ITSCCFVTLISVMSYGPCFG | 2.45 ± 0.089
83 | IVCYLSFASLDDLRTRHMCT | inactive
84 | IVERKVRPAHFYYSLVYEQS | inactive
85 | IVFNGLRSMNRE | inactive
86 | IVITHANTWMLLLVFPITAN | inactive
87 | IVRYTHSSLVYFTDEMMVNR | 1.19 ± 0.12
88 | IVSCTCDRMADLGST | inactive
89 | IVSWLVRMVSWGVCRK | inactive
90 | IVWASTWTCCTN | 2.73 ± 0.049
91 | IVYMDECLYQFNGPDVVPMF | inactive
92 | IVYYGVTGLTRGFSEVRKIS | inactive

Row | Substance | amyloid nucleation score
93 | IWFKWNRCNVRGMTWTDFYA | 1.17 ± 0.082
94 | IWFWKGICLRYTSRKGMNLR | 1.75 ± 0.11
95 | IWMWLKTQSISRLGTGRTTN | inactive
96 | IWPNRHGLKNVLRDQREATL | inactive
97 | IWTLS | inactive
98 | IWVWVWSYWGRNFLSLVRFV | inactive
99 | IWWKNIGCAKYWVIPLRQWA | inactive
100 | IYAPRR | inactive
101 | IYCVNSSAFVLEPF | inactive
102 | IYKSTFFKVRTSGPGRHFGF | 0.186 ± 0.37
103 | IYPFSDMLSFWGMGKCELLR | -0.361 ± 1.1
104 | IYPVNFGWLLGFCAHPAIYD | inactive
105 | IYRLKDRLDDLVSHVDICVV | inactive
106 | IYRVYYDSTLGMCPAWGFYK | inactive
107 | IYSMYQCLFVEHFS | inactive
108 | IYTCSTRSSSFYRRMIRSFL | inactive
109 | IYTVWMAKGVTPVQKGPSRY | inactive
110 | IYVARSGARGRGSWSLCKIC | 0.629 ± 0.28
111 | IYVDVNSDP | inactive
112 | IYVVLQTWHNYAMLTITGLV | 0.228 ± 0.67
113 | IYYIDL | inactive
114 | KAFCFF | 1.24 ± 0.12
115 | KAFFESMFWV | inactive

Row | Substance | amyloid nucleation score
116 | KARANFVYAKFHFTRAP | inactive
117 | KAVLWFGDIWRQVG | inactive
118 | KAYISVIGKLDYQNFSMKRF | 2.41 ± 0.054
119 | KCCEQRAIIPFVGRTRSHAT | inactive
120 | KCISSRARK | inactive
121 | KCMGVSWLSNIVRSIRVIIS | inactive
122 | KCMQVVSSRSWVVHWGWKGG | inactive
123 | KCNRFRG | inactive
124 | KCSNLVAFVI | inactive
125 | KCTANL | inactive
126 | KDKQVV | inactive
127 | KDLWCSDSRS | inactive
128 | KDNTYVIFFYYLFVFVRTFL | inactive
129 | KDVPPFFSSSFNWAGLRKDK | 0.436 ± 0.41
130 | KERVNRSLTYTVFSS | inactive
131 | KEWVMRLSVGYIDSFHRFAW | inactive
132 | KFGSLWRSNESDSSNSALRY | inactive
133 | KFLLTWK | inactive
134 | KFSCINVDPMHYSNSWTT | inactive
135 | KFSTTFVTCSIVLVRILLDL | inactive
136 | KFVFSFGSLYSVLTLERVEG | 0.388 ± 0.2
137 | KGCNYVNNSTAMLSRRSFYS | inactive
138 | KGGSVGHQQLYMCWQYNPVF | inactive

Row | Substance | amyloid nucleation score
139 | KGHCQAVGLKEEKPR | inactive
140 | KGTSR | inactive
141 | KGVDQGISECFLAVWFGRMN | inactive
142 | KGYCFAYRQNSVELIP | inactive
143 | KHVGIVMH | inactive
144 | KIILEIAMRTSLCRPTSSYL | 1.03 ± 0.099
145 | KIIYKGLYEHLIVMLNIINL | inactive
146 | KIMNSKNVLRHFSLGQWLHG | inactive
147 | KIQTNCNFTC | 2.5 ± 0.067
148 | KITLDYRLGHVDRQTTISVK | inactive
149 | KKDQTMVES | inactive
150 | KKMLLWHI | inactive
151 | KKVISSCFYRVCVSSPAGSV | inactive
152 | KKVLN | inactive
153 | KLCYNNCVNLLII | 0.716 ± 0.13
154 | KLFISPLEMLISRISWTILH | 0.152 ± 0.77
155 | KLNAVYTRSAGWLSHQEM | inactive
156 | KLNLG | inactive
157 | KLNSGEVFWQDTL | inactive
158 | KLQEDKLGPSKNKPSVHLCF | inactive
159 | KLSCMSTIVCRYTFLQAKQT | inactive
160 | KLSSFSSLQIYTWYMILG | inactive
161 | KLSSKY | inactive
